Laboratory results from paper PMC9299544.
pKd: −log10 of the molar value. Like-named read-outs stand apart in the source and are kept apart here. Blank lines part the entries; values can stand above or below the substance they belong to.

Assays:
[1] = target: chicken skeletal muscle actin (ADP F-actin) (chicken) (UniProt P68139); experiment: cryo-EM structure; rigor state: 6 uM myosin-15 treated with apyrase (10 U/ml), applied twice to 0.6 uM ADP F-actin on the grid; KMEI buffer with 0.01% NP-40 substitute; 25°C; helical reconstruction, symmetry expansion and focused classification
[2] = target: chicken skeletal muscle actin (ADP F-actin) (chicken) (UniProt P68139); experiment: cryo-EM structure; Mg-ADP state: wild-type myosin-15 incubated with 5 mM ADP-Mg for 20 min, applied to 0.6 uM ADP F-actin on the grid; else as for the rigor samples
[3] = target: wild-type mouse myosin-15 motor domain with 2 IQ motifs (MD-2IQ), heavy chain (mouse); experiment: SEC; heavy chain, ELC and RLC co-expressed in Sf9; FLAG M2 resin, MonoQ, then Superdex 200 in 10 mM Mops, 100 mM KCl, 0.1 mM EGTA, pH 7.0; single peak
F-actin [4] = target: F-actin (UniProt P68133); conditions: cited from earlier work
F-actin [5] = target: F-actin (UniProt P68133); conditions: cited from earlier work; remark: listed apart in the source

stoichiometry N [1]: 1
stoichiometry N [2]: 1
Substance: wild-type mouse myosin-15 motor domain with 2 IQ motifs (MD-2IQ), as the myosin-15:ELC:RLC complex (from UniProt P60661 1-151)

stoichiometry N [3]: 1
Substance: chicken regulatory light chain (RLC; MYL12B) (natural protein)

Substance: myosin-15 motor domain (from UniProt Q9QZZ4)
pKd (F-actin [4]): 6.70
pKd (F-actin [5]): 6.51

stoichiometry N [3]: 1
Substance: bovine smooth muscle essential light chain (ELC; MYL6) (from UniProt P60661 1-151) (natural protein)
